Reference: the supplement of paper PMC10567573

B1: PCDHGA10 (parent)
chain: FHELQMQVTASDSGDPPLSSNVSL

Variants of: B1
Experiment: protein stability index of a GFP-peptide fusion (GPS, HEK-293T) (PSI 1-6); higher = more stable
Details: c terminus: a fixed tail appended
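Further: lentivirally expressed fusions sorted by FACS into six bins by GFP to DsRed ratio, PSI derived from sequencing read proportions per bin multiplied by bin number.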

Protein stability index: each site, then its substitutions
T9: H 2.43 | I 2.09 | W 2.95 | E 3.53 | A 2.55 | M 2.18 | R 2.88 | C 1.93 | Y 1.86 | K 2.65 | F 2.63 | V 2.12
H2: Y 2.31 | N 4.47 | L 2.51 | S 3.83 | A 3.07 | M 2.81 | F 2.21 | P 3.99 | Q 3.43 | V 1.92 | W 1.78 | K 3.84 | T 2.81 | E 4.28
S23: Y 1.75 | L 2.05 | H 2.14 | K 2.84 | R 2.51 | C 1.72 | A 2.15 | T 2.18 | E 3.33 | Q 2.1 | M 2.15 | D 3.16
E3: Q 1.85 | F 2.39 | S 1.59 | C 2.53 | H 1.75 | P 1.97 | I 2.38 | V 1.6 | W 2.54 | D 2.07 | A 1.91 | T 1.82
G14: S 2.34 | D 2.6 | C 2.44 | F 1.82 | Q 1.62 | Y 1.94 | I 2.12 | T 2.31 | L 2.11 | P 3.16 | E 2.98 | K 2.31 | W 2.11 | N 2.27
A10: C 1.74 | F 1.97 | V 1.26 | K 2.41 | N 1.99 | W 1.86 | Y 2.02 | T 2.13 | D 2.62 | I 2.38 | H 2.51 | Q 2.44 | R 1.48 | S 2.35 | G 2.24 | L 1.29
D12: L 1.73 | M 3 | W 1.81 | V 1.73 | C 1.98 | E 2.23 | P 1.89 | Q 1.89 | A 1.46 | Y 2.54 | N 2.92 | T 1.86 | S 2.15 | H 1.88 | K 2.35
S11: Y 1.47 | N 2.03 | M 1.78 | R 1.96 | D 2.3 | W 2.59 | K 2.9 | F 1.55 | A 2.22 | T 2.4 | I 1.88 | E 2.82 | C 2.12
N21: D 2.5 | F 1.54 | A 2.25 | V 1.58 | E 2.61 | K 2.08 | T 2.09 | I 1.79 | G 2.24 | M 1.75 | S 2.1 | W 1.55 | Y 1.64 | H 2.06 | P 2.5
F1: E 5.2 | V 4.11 | W 3.81 | T 4.57 | Y 2.78 | M 4.06 | Q 4.62 | N 4.61 | G 4.74 | I 3.74 | K 4.51 | P 4.8
Q7: L 1.89 | W 2.57 | N 2 | R 1.99 | Y 2.69 | V 1.82 | P 1.71 | F 2.66 | G 2.78 | K 1.67 | C 1.6 | H 2.09 | E 2.54 | I 2.62 | S 1.74
P16: H 2.1 | W 1.69 | F 1.6 | D 2.49 | I 1.7 | E 2.54 | M 2.14 | T 1.99 | C 1.85 | Q 2.08 | S 2.04 | G 2.33 | N 2.23 | A 1.74 | V 2.21 | R 2.19 | L 1.57
